Experimental data as given in patent US12059429B2, “Hornerin: a novel non-VEGF mediated angiogenic protein expressed in both human and mouse angiogenic endothelial cells and human pancreatic cancer cells” (University of Virginia Patent Foundation, priority 2018, dated 2024).

Test system: hornerin
Experiment: Immunoblot of hornerin in HUVECs treated with growth factors
Format: cell-based, human
Conditions: 24 hours treatment; growth factors at published B-max concentrations, EGF at increasing concentrations
Experimental: HUVECs were cultured in 10 cm dishes for 24 hours prior to a change to media containing VEGF (at B-max concentration), TCM, or VC. After 24 hours treatment, the cells were washed with DPBST two times and lysed with radioimmunoprecipitation assay (RIPA) buffer (Thermo Scientific). Lysate protein concentrations were measured by the bicinchoninic acid assay (Pierce, Waltham, MA, USA) and equivalent amounts of protein were loaded into precast 4-15% tris-glycine eXtended (TGX) polyacrylamide gels (Bio-Rad, Hercules, CA, USA). The proteins were resolved by electrophoresis and transferred to nitrocellulose membranes using the iBlot system (Invitrogen, Carlsbad, CA, USA). The membranes were then washed in Tris-buffered saline+1% Tween-20 (TBST), blocked for 30 minutes in TBST+2% milk solution, and incubated overnight at 4° C. with primary antibodies anti-hornerin (Abcam, Cambridge, UK, ab78909; (1:1000)) and anti-HSP90 (Cell Signaling Technology, Danvers, MA, USA, 4877; (1:1000)). The following day the membranes were washed and subsequently incubated with the secondary antibodies anti-goat HRP (R&D Systems, Minneapolis, MN, USA, HAF109; 1:5000) and anti-rabbit HRP (GE Healthcare, NA934V; 1:5000) for 45 minutes at RT. […]
Major constituents of TCM were determined using a Human Angiogenesis Antibody Array (Affymetrix, Santa Clara, CA, USA) per manufacturer's instructions. […]

B1: IL-12: growth factor found in TCM, added to HUVECs at published B-max concentration (protein, UniProt P29459 23-219; P29460 23-328, looked up)
Interleukin-12 subunit alpha: RNLPVATPDPGMFPCLHHSQNLLRAVSNMLQKARQTLEFYPCTSEEIDHEDITKDKTSTVEACLPLELTKNESCLNSRETSFITNGSCLASRKTSFMMALCLSSIYEDLKMYQVEFKTMNAKLLMDPKRQIFLDQNMLAVIDELMQALNFNSETVPQKSSLEEPDFYKTKIKLCILLHAFRIRAVTIDRVMSYLNAS
Interleukin-12 subunit beta: IWELKKDVYVVELDWYPDAPGEMVVLTCDTPEEDGITWTLDQSSEVLGSGKTLTIQVKEFGDAGQYTCHKGGEVLSHSLLLLHKKEDGIWSTDILKDQKEPKNKTFLRCEAKNYSGRFTCWWLTTISTDLTFSVKSSRGSSDPQGVTCGAATLSAERVRGDNKEYEYSVECQEDSACPAAEESLPIEVMVDAVHKLKYENYTSSFFIRDIIKPDPPKNLQLKPLKNSRQVEVSWEYPDTWSTPHSYFSLTFCVQVQGKSKREKKDRVFTDKTSATVICRKNASISVRAQDRYYSSSWSEWASVPCS
  hornerin expression in HUVECs: might stimulate hornerin expression
